These results are taken from patent publication US20100184651A1 (DABUR PHARMA, published 2010).

This assay concerns the target T1, VPAC1 receptor (human, UniProt P32241 31-457).
T1 sequence (looked up): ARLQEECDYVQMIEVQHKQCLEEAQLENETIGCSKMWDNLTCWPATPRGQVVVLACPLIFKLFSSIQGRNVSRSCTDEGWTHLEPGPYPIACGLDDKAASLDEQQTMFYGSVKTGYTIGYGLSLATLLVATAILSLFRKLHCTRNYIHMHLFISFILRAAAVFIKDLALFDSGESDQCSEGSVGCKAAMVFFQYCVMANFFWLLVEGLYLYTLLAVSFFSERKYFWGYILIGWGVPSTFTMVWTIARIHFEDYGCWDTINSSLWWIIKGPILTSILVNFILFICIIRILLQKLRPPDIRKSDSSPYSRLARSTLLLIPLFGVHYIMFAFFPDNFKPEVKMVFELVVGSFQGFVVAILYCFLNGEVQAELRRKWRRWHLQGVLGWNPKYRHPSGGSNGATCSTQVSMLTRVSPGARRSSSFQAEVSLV
As to the kind of experiment: cell-based or functional assay.

B1: VIP-BH3 BID fusion protein (other)
chain: MHSDAVFTDNYTRLRKQMAVKKYLNSILNGSSLLIARRMPNFNEDIIRNIARHLAQVGDSMDRLEHHHHHH
For the molecule B1, the “IC50, cytotoxicity on A549 cells (MTT assay, 24 h)” value was about 5 µM and the “IC50, cytotoxicity on HT29 cells (MTT assay, 24 h)” value was about 15 µM.
